1 molecule from patent US20130189759, “MEGANUCLEASES VARIANTS CLEAVING A DNA TARGET SEQUENCE IN THE NANOG GENE AND USES THEREOF” (Cellectis, published 2013) can be followed below.

What all share (test): cell_activity; 293H endogenous locus, 5 ug plasmid
Conditions in all cases: tags: RM2 linker between monomers

The target in data set [1] is T1, SCOH-NANOG2 pCLS4418 (single-chain I-CreI variant).
T1 chain: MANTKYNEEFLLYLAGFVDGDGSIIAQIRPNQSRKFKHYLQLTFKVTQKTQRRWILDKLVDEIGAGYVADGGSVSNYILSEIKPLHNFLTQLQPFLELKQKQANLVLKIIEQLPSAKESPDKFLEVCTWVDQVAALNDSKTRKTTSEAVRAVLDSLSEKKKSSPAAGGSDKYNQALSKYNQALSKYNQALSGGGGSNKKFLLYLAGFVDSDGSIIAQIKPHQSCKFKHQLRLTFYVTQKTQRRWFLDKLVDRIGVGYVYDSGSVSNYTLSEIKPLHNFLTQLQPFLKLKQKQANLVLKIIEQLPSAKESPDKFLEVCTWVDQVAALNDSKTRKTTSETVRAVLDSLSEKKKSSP
The procedure: (§1) Single Chain I-CreI variants targeting respectively NANOG2 and NANOG4 targets were cloned in the pCLS1853 plasmid. The resulting plasmids, respectively pCLS4415, pCLS4416, pCLS4417, pCLS4418, pCLS4421 and pCLS4422 were used for this experiment. The day of […], cells from the human embryonic kidney cell line, 293-H (Invitrogen) were seeded in a 10 cm dish at density of 1×10⁶ cells/dish. The following day, cells were transfected with 10 μg of total DNA corresponding to the combination of an empty plasmid with a meganuclease-expressing plasmid using lipofectamine (Invitrogen). Plasmid ratio (empty/meganuclease plasmid) used were 10 μg/0 μg, 9 μg/1 μg, 5 μg/5 μg 0 μg/10 μg. 48 hours after transfection, cells were collected and diluted (dilution 1/20) in fresh culture medium. After 7 days of culture, cells were collected and genomic DNA extracted. 300 ng of genomic DNA were used to amplify the endogenous locus surrounding the meganuclease cleavage site by PCR amplification.
(§2) PCR amplification was performed to obtain a fragment flanked by specific adaptator sequences (SEQ ID NO 63; 5′-[…]-3′ and SEQ ID NO 64; 5′-[…]-3′) provided by the company offering sequencing service (GATC Biotech AG, Germany) on the 454 sequencing system (454 Life Sciences). An average of 18,000 sequences was obtained from pools of 2 amplicons (500 ng each). After sequencing, different samples were identified based on barcode sequences introduced in the first of the above adaptators.
(§3) Sequences were then analyzed for the presence of insertions or deletions events (InDel) in the cleavage site of each NANOG target.

Data set [2] concerns the target T2, SCOH-NANOG2 pCLS4416 (single-chain I-CreI variant).
T2 chain: T1 chain with I55F, A65V, E81K, A148T
The procedure:
as §1, §2, §3

In data set [3] the target is T3, SCOH-NANOG2 pCLS4415 (single-chain I-CreI variant).
T3 chain: T1 chain with I55F, A65V, A148T
The procedure: as §1, §2, §3

Residue numbers refer to the chain shown, from its start.

B1: NANOG2 (NANOG2.1) target (dsDNA)
DNA 1: CCAACATCCTGAACCTCAGCTACA
DNA 2: TGTAGCTGAGGTTCAGGATGTTGG
For B1, the activity in data set [1] was 0.317 % InDel; in data set [2], 0.222 % InDel; in data set [3] it was 0.276 % InDel.
